The values below come from US20240158480A1 (ACADEMY OF MILITARY MEDICAL SCIENCE PLA, published 2024).

For orientation: EC50 means the concentration at which the effect is half-maximal. Low values mean higher potency in that assay, high ones lower potency in that assay.

The target in experiment [1] is NiV-BD G (Nipah virus, Bangladesh strain (NiV-BD)). Nature of the experiment: cell-based or functional assay.
Experiment [2] deals with T1, NiV-MY G (Nipah virus, Malaysia strain (NiV-MY), UniProt Q9IH62 71-602).
T1 sequence: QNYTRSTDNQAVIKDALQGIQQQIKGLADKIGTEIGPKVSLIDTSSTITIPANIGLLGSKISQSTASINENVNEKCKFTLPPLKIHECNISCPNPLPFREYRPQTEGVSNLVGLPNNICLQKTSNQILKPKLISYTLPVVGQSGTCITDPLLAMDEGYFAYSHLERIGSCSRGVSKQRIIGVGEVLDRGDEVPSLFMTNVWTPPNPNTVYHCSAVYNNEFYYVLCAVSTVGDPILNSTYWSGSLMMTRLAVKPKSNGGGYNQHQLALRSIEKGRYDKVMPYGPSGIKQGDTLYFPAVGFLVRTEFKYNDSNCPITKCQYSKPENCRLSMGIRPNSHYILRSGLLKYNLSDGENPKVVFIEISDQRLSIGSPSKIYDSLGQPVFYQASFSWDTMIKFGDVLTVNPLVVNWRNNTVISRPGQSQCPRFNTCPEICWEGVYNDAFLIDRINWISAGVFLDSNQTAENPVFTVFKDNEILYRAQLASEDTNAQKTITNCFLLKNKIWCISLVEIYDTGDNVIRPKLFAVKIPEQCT
Nature of the experiment: cell-based or functional assay.

For experiment [3], the target named is NiV-BD G (Nipah virus, Bangladesh strain (NiV-BD)). Nature of the experiment: ELISA, G protein coated at 1 µg/mL, antibody titrated 1:3 from 20 µg/mL. On the technique in general: ELISA stands for enzyme-linked immunosorbent assay.
Experiment [4] addresses T1, NiV-MY G. Described as above.

B1: 1D11 (antibody, V domains shown)
VH: EVQLVESGGGLVQPGGSLRLSCAASGFTFSSYDMSWVRQAPGKGLEWVSSISSVTSYISYADSVKGRFTISRDNAKNSLSLQMNSLKTEDTAVYYCTTENWNFDFWGQGVLVTVSS
VL: DVVMTQSPLSLATTPGQPASISCRSSQSLVHSNGNTYLSWYQQKPGQPPRLLIYEVSNRDSGVPDRFSGSGAGTDFTLKISRVEAEDVGVYYCGQGTHWPPFTFGPGTKLDIK
notes: also called antibody 1D11; monoclonal antibody 1D11; copies: 2 + 2
B1 returned a neutralization of HIV-NiV-BD pseudovirus (luciferase, 293T cells) in experiment [1] of 100%. Also, the “half inhibiting concentration (IC50), NiV-MY pseudovirus neutralization” value in experiment [2] was found to be 0.0579 µg/mL. Further, the EC50 in experiment [3] is 0.00991 µg/mL; in experiment [4] it was 0.0202 µg/mL.

B2: 1F9 (antibody, V domains shown)
VH: QVQLQESGPGLVKPSETLSLSCAVSGGSFSDYWWGWIRQSPGKGLEWIGSIYGSSGRTAYSPSLKSRATISRDTSKNQLFLRLTSVTAADTGVYYCTNERFYGDSNRFDVWGPGVLVTVSS
VL: QPVLTQPTSLSASPGASARLTCTLSSGISVGNYRIFWYQQKPGSPPRYLLNYHTDSDKHQGSGVPSRFSGSKDASANAGILLISGLQSEDEADYYCMIWHNNVDVFGGGTKLTVLR
As for B2, in experiment [1], the neutralization of HIV-NiV-BD pseudovirus (luciferase, 293T cells) was found to be 100%. This molecule had an EC50 in experiment [3] of 0.015 µg/mL.

B3: 2B6 (antibody, V domains shown)
VH: QVQLVQSGAEVKKPGASVKLSCKASGYTFTSFYINWVRQAPGQVLEWMGWINPSNGDTGYAQKFQGRVTMSRDTSTSTAYMELSSLRSEDTAVYYCTRETVGSGTFDCWGQGVLVTVSS
VL: DIVMTQTPLSLSVTLGEPASISCRSSQSLVYSAGKTYLDWYLQKPGQSPQLLIYLVSKRASGVPDKFSGSGSGTDFTLKISRVEAEDVGVYYCMQALRSPLTFGGGTKVELK
notes: also called antibody 2B6; monoclonal antibody 2B6; copies: 2 + 2
On to B3, for which the neutralization of HIV-NiV-BD pseudovirus (luciferase, 293T cells) in experiment [1] came out at 100%. Besides, the “half inhibiting concentration (IC50), NiV-MY pseudovirus neutralization” value in experiment [2] was 0.0283 µg/mL. Moreover, the EC50 in experiment [3] was 0.0054 µg/mL; in experiment [4] it was 0.00956 µg/mL.

B4: 1A9 (antibody, V domains shown)
VH: VQLQESGPGLVKPSETLSLTCAVSGDSISTGYDWTWIRQPPGKGLEWIGYIGGSSGNTNYNPSLKSRVTISKDTSKNQFSLKLSSVTAADTAVYYCARDGTRVYYYGLDSWGQGVVVTVSS
VL: ETVVTQEPSLSVSPGGTVTLTCGLSSGSVSTSNYPSWFQQTPGQAPRMLIYSTNIRPSGVPNRFSGSILGNKAALTITGAQADDESDYYCFFSMVSGTSVFGGGTRLTVLR
Regarding B4, the EC50 in experiment [3] is 0.0183 µg/mL.
